Results reported in the supplement of paper PMC6755084.

Test system: F1*sub RNA substrate (template-directed ligation)
Assay: fraction ligated after 30 min (ligated reads / total reads); higher = more ligase activity; sequences stand for … in GAGACCGCAACTGAAAAGTTGT…AGTTCTGCACGTAGAAGCAAAAGGC
Conditions: 42 °C
In short: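 The ligase ribozyme variants were produced by PCR amplification of oligo-pool templates, T7 transcription and purification on gel. Their ligated and unligated forms were gel-separated, then reverse transcribed with barcoded primers before MiSeq sequencing. Core bases were filtered at a quality of ≥20, and fraction ligated per variant was ligated reads over total reads.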

| Sequence | fraction ligated |
| --- | --- |
| TATCCTTGTTAAGACACTTTGGATGGGTTGA [3d1000] | 0.793 |
| TATCCTTTCGAAGACACTTTGGATGGGTTGA [3d970] | 0.8 |
| TATCCTTTCGTAAACACTTTGGATGGGTTGA [3d972] | 0.795 |
| TATCCTTTCGTAAGAACTTTGGATGGGTTGA [3d974] | 0.797 |
| TATCCTTTCGTAAGACACTTGGATGGGTTGA [3d977] | 0.76 |
| TATCCTTTCGTAAGACACTTTGATGGGTTGA [3d978] | 0.77 |
| TATCCTTTCGTAAGACACTTTGGAGGGTTGA [3d980] | 0.0203 |
| TATCCTTTCGTAAGACACTTTGGATGGGTTA [3d982] | 0.371 |
| TATCCTTTCGTAAGACACTTTGGATGGGTTG [3d983] | 0.766 |
| TATCCTTTCGTAAGACACTTTGGATGGGTTGA [2d91] | 0.786 |
| TATCCTTTCGTAAGACACTTTGGATGGTTGA [3d981] | 0.0298 |
| TATCCTTTCGTAAGACACTTTGGTGGGTTGA [3d979] | 0.0729 |
| TATCCTTTCGTAAGACATTTGGATGGGTTGA [3d976] | 0.787 |
| TATCCTTTCGTAAGACCTTTGGATGGGTTGA [3d975] | 0.771 |
| TATCCTTTCGTAAGCACTTTGGATGGGTTGA [3d973] | 0.77 |
| TATCCTTTCGTAGACACTTTGGATGGGTTGA [3d971] | 0.766 |
| TATCCTTTCTAAGACACTTTGGATGGGTTGA [3d969] | 0.796 |
| TATCCTTTGTAAGACACTTTGGATGGGTTGA [3d968] | 0.772 |
| TATCTGTCGTAAGACACTTTGGATGGGTTGA [3d739] | 0.775 |
| TATCTTGCGTAAGACACTTTGGATGGGTTGA [3d741] | 0.828 |
| TATCTTGTCGAAGACACTTTGGATGGGTTGA [3d744] | 0.755 |
| TATCTTGTCGTAAACACTTTGGATGGGTTGA [3d746] | 0.76 |
| TATCTTGTCGTAAGAACTTTGGATGGGTTGA [3d748] | 0.841 |

| Sequence | fraction ligated |
| --- | --- |
| TATCTTGTCGTAAGACACTTGGATGGGTTGA [3d751] | 0.776 |
| TATCTTGTCGTAAGACACTTTGATGGGTTGA [3d752] | 0.763 |
| TATCTTGTCGTAAGACACTTTGGAGGGTTGA [3d754] | 0.0612 |
| TATCTTGTCGTAAGACACTTTGGATGGGTTA [3d756] | 0.722 |
| TATCTTGTCGTAAGACACTTTGGATGGGTTG [3d757] | 0.779 |
| TATCTTGTCGTAAGACACTTTGGATGGGTTGA [2d69] | 0.791 |
| TATCTTGTCGTAAGACACTTTGGATGGTTGA [3d755] | 0.155 |
| TATCTTGTCGTAAGACACTTTGGTGGGTTGA [3d753] | 0.563 |
| TATCTTGTCGTAAGACATTTGGATGGGTTGA [3d750] | 0.806 |
| TATCTTGTCGTAAGACCTTTGGATGGGTTGA [3d749] | 0.757 |
| TATCTTGTCGTAAGCACTTTGGATGGGTTGA [3d747] | 0.743 |
| TATCTTGTCGTAGACACTTTGGATGGGTTGA [3d745] | 0.819 |
| TATCTTGTCTAAGACACTTTGGATGGGTTGA [3d743] | 0.742 |
| TATCTTGTGTAAGACACTTTGGATGGGTTGA [3d742] | 0.867 |
| TATCTTTCGTAAGACACTTTGGATGGGTTGA [3d740] | 0.837 |
| TATTTGTCGTAAGACACTTTGGATGGGTTGA [3d738] | 0.762 |
| TCACTGTCGTAAGACACTTTGGATGGGTTGA [3d5] | 0.621 |
| TCACTTGCGTAAGACACTTTGGATGGGTTGA [3d7] | 0.493 |
| TCACTTGTCGAAGACACTTTGGATGGGTTGA [3d10] | 0.748 |
| TCACTTGTCGTAAACACTTTGGATGGGTTGA [3d12] | 0.444 |
| TCACTTGTCGTAAGAACTTTGGATGGGTTGA [3d14] | 0.399 |
| TCACTTGTCGTAAGACACTTGGATGGGTTGA [3d17] | 0.419 |
| TCACTTGTCGTAAGACACTTTGATGGGTTGA [3d18] | 0.183 |

| Sequence | fraction ligated |
| --- | --- |
| TCACTTGTCGTAAGACACTTTGGAGGGTTGA [3d20] | 0.333 |
| TCACTTGTCGTAAGACACTTTGGATGGGTTA [3d22] | 0.427 |
| TCACTTGTCGTAAGACACTTTGGATGGGTTG [3d23] | 0.797 |
| TCACTTGTCGTAAGACACTTTGGATGGGTTGA [2d1] | 0.796 |
| TCACTTGTCGTAAGACACTTTGGATGGTTGA [3d21] | 0.709 |
| TCACTTGTCGTAAGACACTTTGGTGGGTTGA [3d19] | 0.0723 |
| TCACTTGTCGTAAGACATTTGGATGGGTTGA [3d16] | 0.782 |
| TCACTTGTCGTAAGACCTTTGGATGGGTTGA [3d15] | 0.769 |
| TCACTTGTCGTAAGCACTTTGGATGGGTTGA [3d13] | 0.608 |
| TCACTTGTCGTAGACACTTTGGATGGGTTGA [3d11] | 0.765 |
| TCACTTGTCTAAGACACTTTGGATGGGTTGA [3d9] | 0.768 |
| TCACTTGTGTAAGACACTTTGGATGGGTTGA [3d8] | 0.662 |
| TCACTTTCGTAAGACACTTTGGATGGGTTGA [3d6] | 0.145 |
| TCATTGTCGTAAGACACTTTGGATGGGTTGA [3d4] | 0.164 |
| TCCTTGTCGTAAGACACTTTGGATGGGTTGA [3d3] | 0.687 |
| TTACTGTCGTAAGACACTTTGGATGGGTTGA [3d279] | 0.226 |
| TTACTTGCGTAAGACACTTTGGATGGGTTGA [3d281] | 0.0196 |
| TTACTTGTCGAAGACACTTTGGATGGGTTGA [3d284] | 0.131 |
| TTACTTGTCGTAAACACTTTGGATGGGTTGA [3d286] | 0.00498 |
| TTACTTGTCGTAAGAACTTTGGATGGGTTGA [3d288] | 0.0626 |
| TTACTTGTCGTAAGACACTTGGATGGGTTGA [3d291] | 0.305 |
| TTACTTGTCGTAAGACACTTTGATGGGTTGA [3d292] | 0.0869 |
| TTACTTGTCGTAAGACACTTTGGAGGGTTGA [3d294] | 0.125 |

| Sequence | fraction ligated |
| --- | --- |
| TTACTTGTCGTAAGACACTTTGGATGGGTTA [3d296] | 0.0531 |
| TTACTTGTCGTAAGACACTTTGGATGGGTTG [3d297] | 0.299 |
| TTACTTGTCGTAAGACACTTTGGATGGGTTGA [2d25] | 0.419 |
| TTACTTGTCGTAAGACACTTTGGATGGTTGA [3d295] | 0.323 |
| TTACTTGTCGTAAGACACTTTGGTGGGTTGA [3d293] | 0.031 |
| TTACTTGTCGTAAGACATTTGGATGGGTTGA [3d290] | 0.517 |
| TTACTTGTCGTAAGACCTTTGGATGGGTTGA [3d289] | 0.229 |
| TTACTTGTCGTAAGCACTTTGGATGGGTTGA [3d287] | 0.00788 |
| TTACTTGTCGTAGACACTTTGGATGGGTTGA [3d285] | 0.00592 |
| TTACTTGTCTAAGACACTTTGGATGGGTTGA [3d283] | 0.147 |
| TTACTTGTGTAAGACACTTTGGATGGGTTGA [3d282] | 0.207 |
| TTACTTTCGTAAGACACTTTGGATGGGTTGA [3d280] | 0.0128 |
| TTATTGTCGTAAGACACTTTGGATGGGTTGA [3d278] | 0.076 |
| TTCACGTCGTAAGACACTTTGGATGGGTTGA [3d336] | 0.658 |
| TTCACTGCGTAAGACACTTTGGATGGGTTGA [3d338] | 0.782 |
| TTCACTGTCGAAGACACTTTGGATGGGTTGA [3d341] | 0.77 |
| TTCACTGTCGTAAACACTTTGGATGGGTTGA [3d343] | 0.8 |
| TTCACTGTCGTAAGAACTTTGGATGGGTTGA [3d345] | 0.788 |
| TTCACTGTCGTAAGACACTTGGATGGGTTGA [3d348] | 0.762 |
| TTCACTGTCGTAAGACACTTTGATGGGTTGA [3d349] | 0.653 |
| TTCACTGTCGTAAGACACTTTGGAGGGTTGA [3d351] | 0.327 |
| TTCACTGTCGTAAGACACTTTGGATGGGTTA [3d353] | 0.195 |
| TTCACTGTCGTAAGACACTTTGGATGGGTTG [3d354] | 0.726 |

| Sequence | fraction ligated |
| --- | --- |
| TTCACTGTCGTAAGACACTTTGGATGGGTTGA [2d28] | 0.795 |
| TTCACTGTCGTAAGACACTTTGGATGGTTGA [3d352] | 0.498 |
| TTCACTGTCGTAAGACACTTTGGTGGGTTGA [3d350] | 0.0639 |
| TTCACTGTCGTAAGACATTTGGATGGGTTGA [3d347] | 0.755 |
| TTCACTGTCGTAAGACCTTTGGATGGGTTGA [3d346] | 0.795 |
| TTCACTGTCGTAAGCACTTTGGATGGGTTGA [3d344] | 0.8 |
| TTCACTGTCGTAGACACTTTGGATGGGTTGA [3d342] | 0.775 |
| TTCACTGTCTAAGACACTTTGGATGGGTTGA [3d340] | 0.774 |
| TTCACTGTGTAAGACACTTTGGATGGGTTGA [3d339] | 0.766 |
| TTCACTTCGTAAGACACTTTGGATGGGTTGA [3d337] | 0.344 |
| TTCACTTGCGAAGACACTTTGGATGGGTTGA [3d373] | 0.702 |
| TTCACTTGCGTAAACACTTTGGATGGGTTGA [3d375] | 0.356 |
| TTCACTTGCGTAAGAACTTTGGATGGGTTGA [3d377] | 0.52 |
| TTCACTTGCGTAAGACACTTGGATGGGTTGA [3d380] | 0.182 |
| TTCACTTGCGTAAGACACTTTGATGGGTTGA [3d381] | 0.055 |
| TTCACTTGCGTAAGACACTTTGGAGGGTTGA [3d383] | 0.0421 |
| TTCACTTGCGTAAGACACTTTGGATGGGTTA [3d385] | 0.0657 |
| TTCACTTGCGTAAGACACTTTGGATGGGTTG [3d386] | 0.571 |
| TTCACTTGCGTAAGACACTTTGGATGGGTTGA [2d30] | 0.777 |
| TTCACTTGCGTAAGACACTTTGGATGGTTGA [3d384] | 0.17 |
| TTCACTTGCGTAAGACACTTTGGTGGGTTGA [3d382] | 0.00525 |
